In assay [1] the target is PD-L1 ligand (analyte of the Octet affinity measurement) (UniProt Q9NZQ7 19-238, limits assumed). As to the kind of experiment: BLI (Octet RED 96), antibody captured on anti-human IgG sensor, PD-L1 in solution, 1:1 fit. As for the experimental part: Affinity Measurement: The affinity measurement was conducted with Octet RED 96 (ForteBio) instrument at 30 degree Celsius. Briefly, anti-human IgG capture sensor (AHC from ForteBio cat #18-5060) was equilibrated with assay buffer (1× dilution of 10× Kinetics Buffer (ForteBio, Cat #18-5032). Test antibody samples were diluted to 3 ug/mL and allowed to bind to the sensors for 5 min. The sensors were then washed in assay buffer for 3 minutes, and PD-L1 ligand diluted at different concentrations were allowed to bind to the mAb coated on the sensors for 5 minutes. Afterwards, dissociation was followed for 10 minutes in the assay buffer. The sensors could be regenerated by washing in glycine buffer and assay buffer 3 times. The data were fitted with 1:1 binding model using the ForteBio software.
(In general: In BLI a coated tip is dipped into the sample, and binding shifts an interference pattern.)

The target of assay [2] is T1, human PDL2 (human, UniProt Q9BQ51 20-219, limits assumed).
T1 construct: Bought protein
T1 sequence (looked up): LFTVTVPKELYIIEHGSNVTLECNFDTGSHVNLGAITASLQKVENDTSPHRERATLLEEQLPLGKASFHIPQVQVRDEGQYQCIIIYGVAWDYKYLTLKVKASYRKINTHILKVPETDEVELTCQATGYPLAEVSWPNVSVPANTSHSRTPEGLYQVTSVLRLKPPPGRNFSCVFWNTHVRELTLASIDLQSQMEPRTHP
As to the kind of experiment: ELISA on coated human PDL2 (printed: hu PDL2-Fc), purified chimeric antibody [panel hu PDL2-Fc ELISA]. As for the experimental part: PD-L1 binding ELISAs: B cell cloning supernatants were tested for binding to PD-L1 by ELISA. ELISA plates were coated with 100 uL antigen at 0.5 or 1 ug/mL in PBS (Life Technologies, cat. #14190-250) overnight at 4° C. or for 1 hour at 37° C. […] Plates were then blocked with PBS+10% goat serum for 1 hour. After washing with deionized water, samples were added in PBS/10% goat serum and incubated for 1 hour. […] Plates were then washed with deionized water and 100 uL TMB substrate (Thermo Scientific, cat. #PI134021) was added to each well. Development was stopped with 100 uL 1N H₂SO₄, and OD450 was measured using a microplate spectrophotometer.
Purified chimeric and humanized antibodies were tested for binding to PD-L1 by ELISA. Antigens tested include; human PD-L1-Fc, human PD-L1-his, murine PD-L1-his, and cynomolgus PD-L1-his (Sinobiological, cat. #90251-CO8H) and human PDL2 (Acrobiosystems, cat. #PD2-H5251). Protocols were the same as for testing B cell cloning supernatants except that the secondary antibodies were as follows; for human PD-L1-Fc the secondary was goat anti-human kappa-HRP (Novex, Life Technologies, cat. #A18853), for human PD-L1-his, murine PD-L1-his and cynomolgus PD-L1-his the secondary was goat anti-human IgG Fc-HRP (Jackson ImmunoResearch, cat. #109-005-098).
A general note: An ELISA detects its analyte on a solid surface through an enzyme-linked reagent.

In assay [3] the target is T2, human PD-L1-Fc (human, UniProt Q9NZQ7 19-238, limits assumed).
T2 construct: Bought fusion protein; not shown: Fc part
As to the kind of experiment: competition ELISA: coated human PD-L1-Fc, antibody added first, then PD1-his, detected with anti-His-HRP.

Assay [4] deals with T1, human PDL2. As to the kind of experiment: ELISA, coated human PDL2.
Assay [5] has as its target human PD-L1 expressed on cells (human, UniProt Q9NZQ7 19-290). As to the kind of experiment: cell-based or functional assay.

Chain of PD-L1 ligand (analyte of the Octet affinity measurement) (Q9NZQ7 19-238 limits assumed): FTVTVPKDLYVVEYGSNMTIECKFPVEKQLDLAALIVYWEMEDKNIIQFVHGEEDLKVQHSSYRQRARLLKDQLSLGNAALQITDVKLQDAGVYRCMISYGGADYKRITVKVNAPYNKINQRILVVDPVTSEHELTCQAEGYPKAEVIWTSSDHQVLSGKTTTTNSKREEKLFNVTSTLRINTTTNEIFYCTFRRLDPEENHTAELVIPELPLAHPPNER
Chain of human PD-L1 expressed on cells (Q9NZQ7 19-290): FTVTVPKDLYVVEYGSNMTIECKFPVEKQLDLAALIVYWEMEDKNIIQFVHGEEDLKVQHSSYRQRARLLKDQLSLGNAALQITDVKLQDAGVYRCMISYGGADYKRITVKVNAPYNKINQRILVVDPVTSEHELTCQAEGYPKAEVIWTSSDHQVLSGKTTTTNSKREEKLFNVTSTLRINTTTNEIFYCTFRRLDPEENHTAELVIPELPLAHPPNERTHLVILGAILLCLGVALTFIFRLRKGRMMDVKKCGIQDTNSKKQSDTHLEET
T2 sequence (Q9NZQ7 19-238 limits assumed): as the sequence (Q9NZQ7 19-238 limits assumed) above

B1: chimeric anti-PD-L1 antibody 116F3 (antibody, V domains shown)
VH: CQSVKESEGGLFKPTDTLTLTCTVSGIDLSSISIGWVRQAPGNGLEWIGTISDSGSAYYASWAKSRSTITRNTNENTVTLKMTSLTAADTASYFCAKEILYYGMDLWGPGTLVTVSS
VL: DVVMTQTPASVSGAVGGTVTIKCQASEDIESYLAWYQQKPGQPPKLLIYAASNLEPGVPSRFKGSRSGTEYTLTITDLECDDAATYHCQATYGSTSSSDYGNAFGGGTKVVVVR
For B1, in assay [1], the Kd is below 1 pM, the koff was below 1e-07 s⁻¹ and the kon amounted to 682000 M⁻¹ s⁻¹. For the same molecule, the binding result in assay [2] is on record as “no binding (tested: 4 µg/mL)”. Also, the “IC50 (read off the curve)” value in assay [3] was around 0.2 µg/mL.

B2: chimeric anti-PD-L1 antibody 110H8 (antibody, V domains shown)
VH: CQSVKESEGGLFKPTDTLTLTCTVSGIDLSSVSISWVRQAPGNGLEWIGTIGASGSAYYASWAKRRSTITRNTNLNTVTLKMTSLTAADTASYFCAKEILYYGMDLWGPGTLVTVSS
VL: DVVMTQTPASVEAAVGGTVTIKCQASQSISNYLAWYQQKPGQRPKLLIYAASNLEPGVPSRFKGSGSGTEYTLTITDLECDDAATYHCQCTYGSTSSSDYGNAFGGGTKVVVVR
Regarding B2, the binding result in assay [4] is reported as “no binding”. In assay [1], this molecule registered a Kd below 1 pM, a koff below 1e-07 s⁻¹ and a kon of 755000 M⁻¹ s⁻¹.

B3: chimeric anti-PD-L1 antibody 110B4 (antibody, V domains shown)
VH: CQSVKESEGGLFKPTDTLTLTCKVSGIDLSSISISWVRQAPGNGLEWIGVINSYGNTYYASWAKSRSTITRNTNENTVTLKMTSLTAADTATYFCAKEILYYGMDLWGPGTLVTVSS
VL: DVVMTQTPASVEAAVGGTVTIKCQASQSISSYFSWYQQKPGQRPKLLIYDASNLESGVPSRFKGSRSGTEYTLTISDLEWDDAATYYCQCTYGSTSSSNYGNNFGGGTKVVVVR
Take B3: in assay [4], the binding result is on record as “no binding”. In assay [1], this molecule showed a Kd of 173 pM, a koff of 6.87e-05 s⁻¹ and a kon of 404000 M⁻¹ s⁻¹.

B4: chimeric anti-PD-L1 antibody 113F1 (antibody, V domains shown)
VH: CQSVKESEGGLFKPTDTLTLTCTVSGIDLSSIAISWVRQAPGNGLEWIGTINSYGSTYYASWAQSRSTITRNTNENTVTLKMTSLTAADTASYFCAKEILYYGMDVWGPGTLVTVSS
VL: DVVMTQTPASVEAAVGGTVTIKCQASQSISSYLAWYQQKPGQPPKLLIYAASNLESGVPSRFKGSGSGTEYTLTISDLECDDAATYYCQSTYGTTSTSDYGNAFGGGTKVVVVR
B4: in assay [1], binding was put at a Kd of 115 pM, the koff is 3.78e-05 s⁻¹ and the kon was 362000 M⁻¹ s⁻¹. In addition, the binding result in assay [2] is given as “no binding (tested: 4 µg/mL)”.

B5: chimeric anti-PD-L1 antibody 115E2 (antibody, V domains shown)
VH: CQSVKESEGGLFKPMDTLTLTCTVSGIDLGSVAISWVRQAPGKGLEWIGTIGSSGSAYYASWAKSRSTITRNTNLNTVTLKMTSLTAADTASYFCAKEILYYGMDRWGPGTLVTVSS
VL: DVVMTQTPASVEASVGGTVTINCQASQSISSYLAWYQQKPGQPPKLLIYAASNLEPGVPSRFKGSGSGTEFTLTISDLECADAATYYCQATYGSTSSSDYGNAFGGGTKVVVVR
B5: in assay [1], the Kd was determined as 100 pM, the koff is 4.99e-05 s⁻¹ and the kon was 532000 M⁻¹ s⁻¹. Besides, the binding result in assay [2] is recorded as “no binding (tested: 4 µg/mL)”.

B6: chimeric anti-PD-L1 antibody 115C1 (antibody, V domains shown)
VH: CQSVKESEGGLFKPTDTLTLTCTVSGFSLSSVAVSWVRQAPGKGLEWIGTISYTGNTYYASWAKSRSTITRNTNENTVTLKMPSLTVADTATYFCAKEILYYGMDFWGPGTLVTVSS
VL: DIVMTQTPSSVSAAVGGTVTINCQASQSISSYLAWYQQKPGQPPKLLIYGASNLESGVPSRFKGSGSGTDFTLTISDLECADAATYYCQSTYGSTSTSDYGNAFGGGTKVVVVR
With B6, in assay [1], the Kd amounted to 51 pM, the koff was 2.08e-05 s⁻¹ and the kon came to 455000 M⁻¹ s⁻¹. In addition, in assay [2], the binding result is given as “no binding (tested: 4 µg/mL)”.

B7: chimeric anti-PD-L1 antibody 111H2 (antibody, V domains shown)
VH: QEQLVESGGGLVQPGGTLKLSCKGSGFDLSSNAMCWVRQAPGKGLEWIGCIVYGNCYYASWVNGRFTISSDNAQSSVDLQLNSLTAADTATYFCARDPAGSSVYTGGFNIWGPGTLVTVSS
VL: AIDMTQTPSPVSAAVGDTVTINCQASENIYSFLAWYQQKPGHSPKPLIYFASKLASGVPSRFKGSGSGTQFTLTISDVQCDDAATYYCQQTVSYKNADTAFGGGTKVVVVR
notes: also called chimeric anti-PD-L1 111H2 antibody
As to B7, the binding result in assay [4] is “no binding”. Besides, in assay [5], the “EC50 of the rise of luciferase activity, PD1/PD-L1 blockade reporter assay (CHO-K1/TCRA/PD-L1 cells with PD1/NFAT Jurkat cells); column Chimeric of the table under the plot” value is 0.0483 µg/mL. In addition, in assay [1], the Kd is 183 pM, the koff came out at 0.000197 s⁻¹ and the kon stood at 1.07e+06 M⁻¹ s⁻¹.

In general, Kd refers to a measure of binding affinity in units of concentration. Read a low Kd as a tighter complex. As usually defined, the koff is the first-order rate constant of dissociation. High values mean fast dissociation, low ones slow dissociation. By kon is commonly meant the rate constant with which the complex forms. Low readings indicate slower complex formation, high ones faster complex formation.

Source of the values: patent US20170355770A1 (ASKGENE PHARMA, published 2017).
